Assay results taken from US20110059076A1, “HUMAN SERUM ALBUMIN LINKERS AND CONJUGATES THEREOF” (priority 2008, published 2011).
“Also recorded” adds a separate entry of the source.

Columns and labels:
[1] = test system: wild type ADRr xenografts; assay: wild type ADRr breast cancer xenograft model; type: in vivo, nude mice; details: 30 mg/kg every 3 days
[2] = test system: Cyclin D1 in BT-474-M3 cells; assay: Cyclin D1 Western blot; type: cell-based; details: 72 hours
From the text: The cytoskeleton protein vinculin is used as a protein loading control in this experiment.

[3] = test system: human BT-474-M3 xenografts; assay: dose response in BT-474-M3 breast cancer xenograft model; type: in vivo, nude mice; details: 0.3, 1, 3, 10, 30 or 90 mg/kg i.p. every 3 days, 12 doses
Protocol: All doses are administered interperitoneally (i.p.). Tumor size is measured twice a week and the corresponding tumor volume is calculated.

[4] = test system: BT474 breast tumor cells; assay: cell cycle analysis by propidium iodide flow cytometry; type: cell-based; details: 72 hours treatment
Protocol: After the end of treatment, cells are trypsinized, gently resuspended in hypotonic solution containing propidium iodide and single cells are analyzed by flow cytometry. Cell cycle distribution in G1 and S phases is measured using curve-fitting algorithms designed for cell cycle analysis (FlowJo software cell cycle platform).
After the end of treatment, cells are trypsinized, gently resuspended in hypotonic solution containing propidium iodide and single cells are analyzed by flow cytometry. Cell cycle distribution in G1 and S phases is measured using curve-fitting algorithms designed for cell cycle analysis (FlowJo software cell cycle platform, Tree Star, Inc.). […] In a second experiment, the number of cell colonies formed following treatment with B2B3-1 is studied. […] Media only or media including treatment is replenished every 3 days. After 14 days the number of colonies is counted and compared to untreated cells.

[5] = test system: signaling proteins in BT474 breast cancer cells; assay: Western blot of signaling proteins in BT474 cells; type: cell-based; details: BT474, dose range 24 hours, heregulin stimulation
Protocol: Levels of pErbB2, pErbB3, pErk and pAKT and their corresponding total protein levels are determined on cell lysates by Western blot analysis.

[6] = test system: AKT phosphorylation in BT-474-M3 cells; assay: HRG-induced AKT phosphorylation ELISA in BT-474-M3; type: cell-based, human; details: BT-474-M3, dose titration 24 hours, 5 nM HRG 1β EGF domain 10 minutes
[7] = test system: ErbB3 phosphorylation in ZR75-1 breast cancer cells; assay: agonistic activity: pErbB3 ELISA in ZR75-1 cells without HRG; type: cell-based; details: serum starved ZR75-1 cells, 1 μM, 24 hours, no HRG
Protocol: Except as noted, ELISA reagents for total and phospho-ErbB3 ELISAs are purchased from R&D Systems as DUOSET kits. 96-well NUNC MAXISORB plates are coated with 50 μl of an antibody and incubated overnight at room temperature. Next morning, plates are washed 3 times with 1000 μl/well in a BIOTEK plate washer with Dulbecco's phosphate buffered saline without calcium or magnesium (PBS) with added Tween detergent (PBST) (0.05% Tween-20). […] The plates are washed 3 times with 1000 μl/well in the BIOTEK plate washer with PBST. Cells are grown at 37° C. and 5% carbon dioxide, washed with cold PBS, then harvested with mammalian protein extract (MPER) lysis buffer (Pierce, 78505) to which 150 mM NaCl, 5 mM sodium pyrophosphate, 10 uM bpV (phen), 50uM phenylarsine, 1 mM sodium orthovanadate, and protease inhibitor cocktail (Sigma, P2714) is added. 50 μL of cell lysates and standards diluted in 50% Lysis buffer and 1% BSA are used in duplicates for further processing. Samples are incubated for 2hrs at 4° C. on a plate shaker and washed as before. About 50 μl of a detection antibody diluted in 2% BSA, PBST is added and incubated for about 1-2 hrs at room temperature. […] About 50 μL of SUPERSIGNAL ELISA Pico (Thermo Scientific) substrate is added and the plate is read using a FUSION plate reader. […]
Cells are lysed and the pErbB3 content of the lysates is assessed by ELISA generally as described above.

[8] = molecular target: ErbB3 (Homo sapiens, UniProt P04626+P21860); assay: inhibition of ligand-induced phosphorylation of ErbB3 (general statement); type: cell-based
[9] = pharmacokinetics in Cynomolgus monkeys (dose range-finding toxicology study); type: in vivo, Cynomolgus monkey
Protocol: Blood samples for pharmacokinetic analysis are also obtained from a dose range-finding toxicology study in female Cynomolgus monkeys. […] Sampling occurred prior to and 5 minutes after dosing on each dosing day (study days 1, 4, 7 and 10) to provide pre-dose and peak/trough concentrations, and at 1, 2, 4, 8, 24 and 48 hours after the end of the first infusion on day 1 and at 1, 2, 4, 8, 24, 48, 72 and 120 hours after the last infusion on day 10. For recovery animals dosed at 200 mg/kg serum samples are also collected at 168, 336 and 456 hours after the last infusion.
Cynomolgus monkey serum samples are assayed using the ErbB2/ErbB3 ELISA method described previously.

[10] = molecular target: T1, ErbB2-associated complexes in BT474 breast cancer cells (Homo sapiens, UniProt P04626+P21860); assay: immunoprecipitation-Western blot of ErbB2-associated complexes; type: cell-based; details: BT474, dose range 24 hours, heregulin stimulation
T1 construct: endogenous in cells; host or cells: BT474 breast cancer cells
From the text: ErbB2-associated complexes are isolated from cell lysates using an anti-ErbB2 antibody followed by Western blot analysis to detect pErbB2 and pErbB3 and the corresponding total protein levels.

[11] = test system: BT-474-M3 xenograft; assay: combination with trastuzumab in BT-474-M3 xenograft model; type: in vivo, athymic nude mice (nu/nu); details: single agent
Protocol: Mice receive a subcutaneous estrogen-releasing implant in the opposite flank (0.72 mg pellet, 60 day, slow-release, Innovative Research of America, Sarasota, Fla.) 24 h prior to the injection of 20×10^6 human BT-474-M3cells in PBS. Dosing is initiated when tumor growth is established (tumor volumes of approximately 400 mm^3). Tumors are measured twice a week using digital calipers. Tumor volume is calculated using the formula: π/6×(W^2×L), where W is the short diameter and L is the long diameter.

[12] = Cynomolgus monkey (1st dose), 4 mg/kg
[13] = Cynomolgus monkey (1st dose), 20 mg/kg
[14] = Cynomolgus monkey (1st dose), 200 mg/kg
[15] = Cynomolgus monkey (4th dose), 4 mg/kg
[16] = Cynomolgus monkey (4th dose), 20 mg/kg
[17] = Cynomolgus monkey (4th dose), 200 mg/kg
[18] = Cynomolgus monkey (4th dose), 200 mg/kg, recovery animals

Q: Which results are given for “B2B3-1: bispecific scFv antibody fusion: anti-ErbB3 scFv H3 and anti-ErbB2 scFv B1D2 joined by a modified human serum albumin (HSA) linker”?
A: xenograft response [1]: no response; also recorded: non-responder; levels of Cyclin D1 compared to untreated cells [2]: decrease; complete regressions [3]: Complete regressions were observed in each of the B2B3-1 treatment groups except mice treated with the lowest dose; tumor size compared to the control group [3]: significant reduction; population of cells in G1 phase [4]: increase; also recorded: G1 arrest; population of cells in S phase [4]: modestly decrease; levels of pErbB2 [5]: reduced in a dose-dependent manner; levels of pErbB3 [5]: reduced in a dose-dependent manner; inhibition of HRG induced AKT phosphorylation [6]: inhibits; levels of phosphorylated ErbB3 with B2B3-1 alone (agonistic activity) [7]: comparable to the levels in untreated cells; also recorded: does not stimulate ErbB3 phosphorylation; potency of inhibition of ligand-induced phosphorylation of ErbB3 [8]: sub-nanomolar; AUC [9, 12]: 3.44E+03 hr-μg/ml; Clearance [9, 12]: 28.1 mL/day/kg; T½β [9, 12]: 39.1 h; AUC [9, 13]: 2.29E+04 hr-μg/ml; Clearance [9, 13]: 21.1 mL/day/kg; T½β [9, 13]: 33.1 h; AUC [9, 14]: 3.18E+05 hr-μg/ml; Clearance [9, 14]: 15.4 mL/day/kg; T½β [9, 14]: 68.8 h; AUC [9, 15]: 7.20E+03 hr-μg/ml; Clearance [9, 15]: 14.4 mL/day/kg; T½β [9, 15]: 44.9 h; AUC [9, 16]: 8.20E+04 hr-μg/ml; Clearance [9, 16]: 6 mL/day/kg; T½β [9, 16]: 122.5 h; AUC [9, 17]: 5.72E+05 hr-μg/ml; Clearance [9, 17]: 8.4 mL/day/kg; T½β [9, 17]: 69.7 h; AUC [9, 18]: 5.99E+05 hr-μg/ml; Clearance [9, 18]: 8.16 mL/day/kg; T½β [9, 18]: 66.6 h; Mean half-life estimates ([9]; Cynomolgus monkey, day 1, 4, 20 or 200 mg/kg): 38.3 to 67.2 h; ErbB3 and phospho-ErbB3 precipitated by the anti-ErbB2 antibody [10]: crosslinks ErbB2 to ErbB3; mice with completely regressed tumors ([11]; B2B3-1 3 mg/kg q3d): 0 out of 10; mice with completely regressed tumors ([11]; B2B3-1 10 mg/kg q3d): 0 out of 10
